In IntAct's records for PubMed 19644450:

B1: Isoform 2 of C-Jun-amino-terminal kinase-interacting protein 4 (Homo sapiens), O60271-2 (parent)
chain: MELEDGVVYQEEPGGSGAVMSERVSGLAGSIYREFERLIGRYDEEVVKELMPLVVAVLENLDSVFAQDQEHQVELELLRDDNEQLITQYEREKALRKHAEEKFIEFEDSQEQEKKDLQTRVESLESQTRQLELKAKNYADQISRLEEREAELKKEYNALHQRHTEMIHNYMEHLERTKLHQLSGSDQLESTAHSRIRKERPISLGIFPLPAGDGLLTPDAQKGGETPGSEQWKFQELSQPRSHTSLKDELSDVSQGGSKATTPASTANSDVATIPTDTPLKEENEGFVKVTDAPNKSEISKHIEVQVAQETRNVSTGSAENEEKSEVQAIIESTPELDMDKDLSGYKGSSTPTKGIENKAFDRNTESLFEELSSAGSGLIGDVDEGADLLGMGREVENLILENTQLLETKNALNIVKNDLIAKVDELTCEKDVLQGELEAVKQAKLKLEEKNRELEEELRKARAEAEDARQKAKDDDDSDIPTAQRKRFTRVEMARVLMERNQYKERLMELQEAVRWTEMIRASRENPAMQEKKRSSIWQFVPTRFSRLFSSSSNTTKKPEPPVNLKYNAPTSHVTPSVKKRSSTLSQLPGDKSKAFDFLSEETEASLASRREQKREQYRQVKAHVQKEDGRVQAFGWSLPQKYKQVTNGQGENKMKNLPVPVYLRPLDEKDTSMKLWCAVGVNLSGGKTRDGGSVVGASVFYKDVAGLDTEGSKQRSASQSSLDKLDQELKEQQKELKNQEELSSLVWICTSTHSATKVLIIDAVQPGNILDSFTVCNSHVLCIASVPGARETDYPAGEDLSESGQVDKASLCGSMTSNSSAETDSLLGGITVVGCSAEGVTGAATSPSTNGASPVMDKPPEMEAENSEVDENVPTAEEATEATEGNAGSAEDTVDISQTGVYTEHVFTDPLGVQIPEDLSPVYQSSNDSDAYKDQISVLPNEQDLVREEAQKMSSLLPTMWLGAQNGCLYVHSSVAQWRKCLHSIKLKDSILSIVHVKGIVLVALADGTLAIFHRGVDGQWDLSNYHLLDLGRPHHSIRCMTVVHDKVWCGYRNKIYVVQPKAMKIEKSFDAHPRKESQVRQLAWVGDGVWVSIRLDSTLRLYHAHTYQHLQDVDIEPYVSKMLGTGKLGFSFVRITALMVSCNRLWVGTGNGVIISIPLTETNKTSGVPGNRPGSVIRVYGDENSDKVTPGTFIPYCSMAHAQLCFHGHRDAVKFFVAVPGQVISPQSSSSGTDLTGDKAGPSAQEPGSQTPLKSMLVISGGEGYIDFRMGDEGGESELLGEDLPLEPSVTKAERSHLIVWQVMYGNE

Variants of: B1
Conditions: with arf6_human ARF6, P62330
Sequence of arf6_human ARF6, P62330 (P62330 whole entry): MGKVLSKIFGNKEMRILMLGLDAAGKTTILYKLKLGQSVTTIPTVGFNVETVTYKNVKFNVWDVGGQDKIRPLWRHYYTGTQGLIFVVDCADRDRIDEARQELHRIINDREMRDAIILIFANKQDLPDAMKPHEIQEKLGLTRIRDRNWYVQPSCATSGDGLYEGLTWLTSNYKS

| effect of a mutation on the interaction | Variant |
| --- | --- |
| decreasing interaction | D425A |

Variants of: B1
Conditions: with arf6_human ARF6, P62330
Remark: another data set of the same source

| effect of a mutation on the interaction | Variant |
| --- | --- |
| decreasing interaction | I421A |
